Data: publication PMC11008599 (Frontiers in Immunology, 2024)

What was measured:
human IL-2 [1] = target: T1, human IL-2 (human, UniProt P60568 21-153); test: SPR; […], Biacore 8K+; […]; HBS-EP+; […]; conditions: both partners purified
T1 construct: The source is told for the ELISA; nothing else is said for the SPR

human IL-2 [2] = target: T1, human IL-2; test: SPR; multicycle kinetics, Biacore 8K+; knob domain constructs immobilised on a CM5 chip via amine coupling, IL-2 in solution; HBS-EP+; two-state binding model, only the fastest association and the slowest dissociation rate constants reported; conditions: both partners purified

T1 sequence (P60568 21-153): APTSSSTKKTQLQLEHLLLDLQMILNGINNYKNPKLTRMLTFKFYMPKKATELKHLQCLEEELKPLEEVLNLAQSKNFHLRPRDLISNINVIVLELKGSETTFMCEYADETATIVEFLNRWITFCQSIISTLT

B1: aIL2_1-SNV-N (other)
chain: LKEVQDNIGSSCPESYRFHSDRWSRNCCIPDSWDDSYVWNCDHYAVRPAIGSLKRELADL
notes: also called aIL2_1, SNV-N framework; not shown: His8, C-terminal, kept
Work on B1 yielded a Kd (human IL-2 [1]) of 9.4 nM.

B2: aIL2_1-BECN1 (other, bovine (knob domain))
chain: YQREYSEFKRQQLELDDELGSSCPESYRFHSDRWSRNCCIPDSWDDSYVWNCDHYAVRPAIGSLIQELEDVEKNRKIVAENL
notes: also called aIL2_1, BECN1 framework; not shown: His8, C-terminal, kept
In the case of B2, the Kd (human IL-2 [2]) is reported as 10.8 nM.
